Laboratory results reported in paper PMC6582324 (Nucleic Acids Research, 2019).
Positions count from the first letter of the chain named. Names may count otherwise.

T1: SigI1C, C-terminal domain of σI factor SigI1 (C. thermocellum ATCC 27405, UniProt A3DBH0 141-249)
T1 sequence: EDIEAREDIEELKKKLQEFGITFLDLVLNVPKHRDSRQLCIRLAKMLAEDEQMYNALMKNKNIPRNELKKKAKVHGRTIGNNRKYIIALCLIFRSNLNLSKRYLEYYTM

T2: SigI1C (Clostridium thermocellum ATCC 27405, UniProt A3DBH0 141-249)
T2 sequence: T1 sequence

T3: SigI1C K209E/R217E (Clostridium thermocellum ATCC 27405, UniProt A3DBH0 141-249, K209E;R217E)
T3 sequence: T1 sequence with K69E, R77E

B1: RsgI1N, N-terminal cytoplasmic inhibitory domain of anti-σI factor RsgI1, wild type (domain or fragment, C. thermocellum ATCC 27405)
chain: MNRLGIIYEIQGMKAVVLTSEGEFLIIRRRKDMKVGQQVSFENEDIYNVRGK
B2: RsgI1N Y8L-E9K (domain or fragment, C. thermocellum ATCC 27405)
chain: B1 chain with Y8L, E9K
B3: RsgI1N E9K-E21K (domain or fragment, C. thermocellum ATCC 27405)
chain: B1 chain with E9K, E21K
B4: RsgI1N E21K (domain or fragment, C. thermocellum ATCC 27405)
chain: B1 chain with E21K
B5: RsgI1N F24I (domain or fragment, C. thermocellum ATCC 27405)
chain: B1 chain with F24I
B6: RsgI1N L18I (domain or fragment, C. thermocellum ATCC 27405)
chain: B1 chain with L18I
B7: RsgI1N E9K-E23K (domain or fragment, C. thermocellum ATCC 27405)
chain: B1 chain with E9K, E23K
B8: RsgI1N V16I (domain or fragment, C. thermocellum ATCC 27405)
chain: B1 chain with V16I
B9: RsgI1N V35K (domain or fragment, C. thermocellum ATCC 27405)
chain: B1 chain with V35K
B10: RsgI1N Y8L-E9K-V35R (domain or fragment, C. thermocellum ATCC 27405)
chain: B1 chain with Y8L, E9K, V35R
B11: RsgI1N V16K (domain or fragment, C. thermocellum ATCC 27405)
chain: B1 chain with V16K
B12: RsgI1N V35I (domain or fragment, C. thermocellum ATCC 27405)
chain: B1 chain with V35I
B13: RsgI1N Y8I (domain or fragment, C. thermocellum ATCC 27405)
chain: B1 chain with Y8I
B14: RsgI1N E9G (domain or fragment, C. thermocellum ATCC 27405)
chain: B1 chain with E9G
B15: RsgI1N Y8L-V35R (domain or fragment, C. thermocellum ATCC 27405)
chain: B1 chain with Y8L, V35R
B16: RsgI1N E9K (domain or fragment, C. thermocellum ATCC 27405)
chain: B1 chain with E9K
B17: RsgI1N E23K (domain or fragment, C. thermocellum ATCC 27405)
chain: B1 chain with E23K
B18: RsgI1N L18F (domain or fragment, C. thermocellum ATCC 27405)
chain: B1 chain with L18F
B19: RsgI1N Y8L (domain or fragment, C. thermocellum ATCC 27405)
chain: B1 chain with Y8L
B20: PSigI1 -35 region (dsDNA)
DNA 1: ATCGATAATATACACAAAAA
DNA 2: TTTTTGTGTATATTATCGAT

What was measured:
[1] = biological target: T1, SigI1C, C-terminal domain of σI factor …; assay: SPR
SigI1C = biological target: T2, SigI1C; assay: EMSA
SigI1C K209E/R217E = biological target: T3, SigI1C K209E/R217E; assay: EMSA

Binder	Kd [1]	binding result (SigI1C)	binding result (SigI1C K209E/R217E)
B1	11 pM		
B2	160 pM		
B3	20 pM		
B4	16 pM		
B5	190 pM		
B6	670 pM		
B7	6400 pM		
B8	360 pM		
B9	6.5 pM		
B10	9300 pM		
B11	2400 pM		
B12	23 pM		
B13	450 pM		
B14	71 pM		
B15	40 pM		
B16	97 pM		
B17	360 pM		
B18	3.1 pM		
B19	84 pM		
B20		binds	no binding
